In US12077566 one finds Kd data, which are given here for one substance.

For the experiment, the target named is EGFR extracellular domain (with an amino acid sequence of 25-645) (human) (UniProt P00533). As to the kind of experiment: SPR, Biacore T200; EGFR extracellular domain on CM5 chip, rLZ-8 protein as analyte.

A word on the Kd: it is the free concentration of one partner at which half of the binding sites on the other are occupied at equilibrium, for simple one-to-one binding. Read a low Kd as a tighter complex. “rLZ-8 (D20H/E68K) (from UniProt P14945 1-111)” yielded a Kd of 6.43 nM.
